B1: Wnt-1: Partially purified conditioned media from stable fibroblast cell line engineered to secrete Wnt-1 ligand (protein)
chain: ANSSGRWWGIVNIASSTNLLTDSKSLQLVLEPSLQLLSRKQRRLIRQNPGILHSVSGGLQSAVRECKWQFRNRRWNCPTAPGPHLFGKIVNRGCRETAFIFAITSAGVTHSVARSCSEGSIESCTCDYRRRGPGGPDWHWGGCSDNIDFGRLFGREFVDSGEKGRDLRFLMNLHNNEAGRTTVFSEMRQECKCHGMSGSCTVRTCWMRLPTLRAVGDVLRDRFDGASRVLYGNRGSNRASRAELLRLEPEDPAHKPPSPHDLVYFEKSPNFCTYSGRLGTAGTAGRACNSSSPALDGCELLCCGRGHRTRTQRVTERCNCTFHWCCHVSCRNCTHTRVLHECL
modifications: left off: small tags and cut ends
B2: Wnt-5a: Partially purified conditioned media from stable fibroblast cell line engineered to secrete Wnt-5a ligand (protein)
chain: IIGAQPLCSQLAGLSQGQKKLCHLYQDHMQYIGEGAKTGIKECQYQFRHRRWNCSTVDNTSVFGRVMQIGSRETAFTYAVSAAGVVNAMSRACREGELSTCGCSRAARPKDLPRDWLWGGCGDNIDYGYRFAKEFVDARERERIHAKGSYESARILMNLHNNEAGRRTVYNLADVACKCHGVSGSCSLKTCWLQLADFRKVGDALKEKYDSAAAMRLNSRGKLVQVNSRFNSPTTQDLVYIDPSPDYCVRNESTGSLGTQGRLCNKTSEGMDGCELMCCGRGYDQFKTVQTERCHCKFHWCCYVKCKKCTEIVDQFVCK
modifications: left off: small tags and cut ends

What was measured:
Type in all cases: cell-based, rat
[1] = test system: ventral mesencephalic Nurr1+ neuronal precursors; test: Conversion of VM Nurr1+ precursors into Nurr1+/TH+ dopaminergic neurons (double immunostaining); conditions: VM cultures; control approximately 50%
Experimental: (§1) Ventral mesencephala and cerebral cortices from embryos E13.5-14.5 obtained from timed-mated Sprague-Dawley rats were dissected, mechanically dissociated and plated at a final density of 1×10^5 cells/cm2 on poly-D-lysine coated 12- or 24-well plates in a defined, serum-free medium (N2, consisting of a 1:1 mixture of F12 and DMEM containing insulin (10 ng/ml), transferrin (100 μg/ml), putrescine (100 μM), progesterone (20 nM), selenium (30 nM), glucose (6 mg/ml), and bovine serum albumin (1 mg/ml)). Purified Type 1 astrocytes were obtained from mixed glial cultures derived from the VM or CTX of P1 rats according to a standard protocol (Wagner et al., 1999). After shaking and replating into 12-well plates, astrocytes were grown to confluency in 15% fetal bovine serum-containing media and changed to N2 medium, at which time freshly dissected VM or CTX cells were plated on top of the astrocytes at a density of 1×10^5 cells/cm2. All factors were added once, at the initiation of culture, with the exception of 5-bromodeoxyuridine (BrdU), which was added 4-6 hours prior to fixation. Cultures were maintained in a humidified 5% CO2, 95% air incubator at 37° C. and fixed after given time periods with 4% paraformaldehyde for 45 minutes prior to immunocytochemical analysis.
B1A fibroblast lines were cotransfected with the mFz8CRD-IgG/pRK5 and the pIRES puro 2 (Clontech, BD Bioscience, Erembodegem, Belgium) plasmids, using Lipofectamine Plus reagent (Invitrogen, Lidingo, Sweden) according to the instruction of the manufacturer. Upon selection for puromycin resistance (1 μg/ml Sigma, Stockholm, Sweden), clones were isolated and expanded. A clone overexpressing Fz8CRD 700× (real time RT-PCR analysis) was identified. Harvesting and partial purification of Fz8CRD conditioned media were performed as described previously. In all the blocking experiments performed, the Fz8CRD and B1A control partial purified conditioned medias were used at a final concentration of 125-250 μg/ml. […]
Only clearly stained cells were counted as positive cells. […]

VM cultures = test: TuJ1+ neurons and proliferating clusters, proportion dopaminergic, in VM cultures; conditions: for total number of TuJ1+ neurons: FIG. 3f
Experimental: as §1
(§2) Fixed cultures were incubated with one of the following antibodies, diluted appropriately in phosphate-buffered saline (PBS) containing 1% bovine serum albumin and 0.3% Triton-X 100: mouse anti-BrdU, 1:50 (DAKO, Denmark), mouse anti-β-tubulin, Type III (TuJ1), 1:250 (Sigma), mouse anti-TH, 1:1000 (Incstar, USA), rabbit anti-TH, 1:250 (PelFreeze); rabbit anti-Nurr1, 1:2000 (gift from Dr. T. Perlmann, Sweden), rabbit anti-Nurr1, 1:1000 (Santa Cruz, USA) or mouse anti-Nurr1, 1:250 (BD Transduction Laboratories, USA), rabbit anti Adh2 1:4000 (gift from Dr. R. Lindahl, South Carolina). Incubations were either carried out at 4° C. overnight, or at room temperature for 1 hour. Both processes yielded similar results. After washing, cultures were incubated for 1-3 hr with appropriate secondary antibodies (biotinylated 1:500; CY2-, FITC-, or rhodamine-coupled horse-anti-mouse IgG 1:100; or goat-anti-rabbit IgG 1:100; all from Vector, USA), in the same dilution buffer. Brightfield immunostaining was visualized with the Vector Laboratory ABC immunoperoxidase kit, using either NovaRed (red), or AEC (red), SG or 3-3′ dimaminobenzidine tetrahydrochloride (DAB 0.5 mg/ml)/nickel chloride (1.6 mg/ml) (gray/black), or VIP (violet) substrates. Double-staining was performed by sequential single staining as described. The order of staining was only critical for BrdU-double labeling, in which case the BrdU procedure was always performed second. […] Photos were acquired with a Zeiss Axioplan 100M microscope and collected with a Hamamatsu camera C4742-95 (with the QED imaging software).
Only clearly stained cells were counted as positive cells. Spheres were considered positive if they contained one or more positive cell. Quantitative immunocytochemical data on individual cells represent means and standard errors of counts obtained by a blinded observer from 10-20 non-overlapping fields (cells) or in the entire well (clusters), in each of 3-4 wells per condition from 3-4 independent experiments, unless stated otherwise. For each variable, initial statistical comparisons were performed by a global ANOVA, with multiple factors of dose, time point, treatment and/or region; if significant interactions between treatment and any other variable existed, data were further divided into separate times, doses or regions. Fisher's protected least significant difference was used post hoc to identify specific points at which the treatments differed from controls (or each other) only when significant interactions between factor treatment and other variables occurred. Significance for all tests was assumed at the level of p<0.05. […]

[2] = test system: E13.5 primary cultures from the cerebral cortex; test: Induction of TH in Nurr1+ E13.5 cerebral cortex primary cultures; conditions: for proportion of Nurr1 positive cortical cells that expressed TH: Wnt ligands or co-culture with P1 astrocytes
Experimental: as §1, §2
Only clearly stained cells were counted as positive cells. Spheres were considered positive if they contained one or more positive cell. Quantitative immunocytochemical data on individual cells represent means and standard errors of counts obtained by a blinded observer from 10-20 non-overlapping fields (cells) or in the entire well (clusters), in each of 3-4 wells per condition from 3-4 independent experiments, unless stated otherwise. […]

| Molecule | proportion of Nurr1 positive cells that expressed TH (Nurr1+/TH+) [1] | proportion of VM clusters containing dopaminergic neurons (VM cultures; FIG. 3e) | total number of TuJ1+ neurons (VM cultures) | proportion of TH+ (dopaminergic) neurons (VM cultures; FIG. 3g) | proportion of Nurr1 positive cortical cells that expressed TH [2] | enrichment for dopaminergic clusters (VM cultures; FIG. 3e) | enrichment for dopaminergic neurons (VM cultures; FIG. 3g) | increase in number of proliferating clusters containing TuJ1+ cells (VM cultures; compared to control (FIG. 3d)) | increase in number of double Nurr1/TH+ cells compared to Wnt-1 ([2]; 3 days) | increase in number of double Nurr1/TH+ cells compared to control ([2]; 3 days) |
| --- | --- | --- | --- | --- | --- | --- | --- | --- | --- | --- |
| B1 | 70% | about 30% | increased | did not increase | significant increase |  |  |  |  |  |
| B2 | 90% |  | did not increase |  | significant increase | more than two | more than two | did not increase | > 4 fold | > 40 fold |
